B1: TPR t1 (parent)
chain: GACCAAUCUGCCCUCAGAGCUCGAGAACAUCUUCGGAUGCAGAGGAGGCAGGCUUCGGUGGCGCGAUAGCGCCAACGUCCUCAACCUCCAAUGCAUCCCACCACAUGAUGAUGCCUGAAGAGCCUUGGUUUUUUG

Variants of: B1
Experiment: polymerase ribozyme fitness, log enrichment relative to wild type (log ratio); higher = more active; in vitro selection for triplet polymerase activity
Outline: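 Fitness compares each genotype's enrichment to that of the wild type on a logarithmic scale, averaging replicates with inverse-variance weights. The logarithm is base 2. Enrichment came from Illumina sequencing of input and output libraries after one triplicate round of in vitro selection, which included frozen incubation at −7 °C, of PCR-built, transcribed mutant libraries of each subunit of a heterodimeric triplet polymerase ribozyme. Only genotypes with ≥10 input reads and ≥1 read per output were kept.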

Row | Variant | polymerase ribozyme fitness (log ratio)
1 | GACCAAUCUGCCCUCAGAGCUCGAGAACAUCUUCGGAUGCAGAGGUGGCAGGCUUCGGUGGCGCGAUAGCGCCAACGUCCUCAACCUCCAAUGCAUCCCAUCACAUGAUGAUGCCUGAAGUGCCUUGGUUUUUUG | 0.775
2 | GACCAAUCUGCCCUCAGAGCUCGAGAACAUCUUCGGAUGCAGAGGUGGCAGGCUUCGGUGGCGCGAUAGCGCCAACGUCCUCAACCUCCAAUGGAUCCCACCACAUGAUGAUGCCUGAAGAGCCUUGGUUUUUUG | -2.36
3 | GACCAAUCUGCCCUCAGAGCUCGAGAACAUCUUCGGAUGCAGAGGUAGUAGGCUUCGGUGCCGCGAUAGCGUCAACGUCCUCAAGCUCCAAUGCAUCCCACCACAUGAUGAUGCCUGAAGAGCCUUGGUUUUUUG | -2.44
4 | GACCAAUCUGCCCUCAGAGCUCGAGAACAUCUUCGGAUGCAGAGGUGGCAGGCUUCGGUGGUGCGAUAGCGCCAACGUCCUCAACCUCCAAUGGAUCCCACCACAUGAUGAUGCCUGAAGAGCCUUGGUUGUUUG | -4.7
5 | GACCAAUCUGCCCUCAGAGCUCGAGAACAUCUUCGGAUGCAGAGGUGGCAGGCUUCGGUGGCGCGAUAGCGCGAACGUCCUCAACCUCCAAUGCAUCCCACCACAUGAUGAUGCCUGAAGAGCCUUGGUUUUGUG | -1.42
6 | GACCAAUCUGCCCUCAGAGCUCGAGAACAUCUUCGGAUGCAGAGGUAGCAGGCUUCGGUGGCGCGAUAGCGUCAACGUCCUCAACCUCCAAUGCAUCCCACCACAUGAUGAUGCCUGAAGGGCCUUGGUCUUUUG | 0.526
7 | GACCAAUCUGCCCUCAGAGCUCGAGAACAUCUUCGGAUGCAGAGGUAGCAGGCUUCGGUGGCGCGAUAGCGCCAACGUCCUCAACCUCCAAUGCAUCCCACCACAUGAUGAUGCCUGAAGAGCCUUGGUUUUUUG | -2.18
8 | GACCAAUCUGCCCUCAGAGCUCGAGAACAUCUUCGGAUGCAGAGGUGGCAGGCUUCGGUGGCGCGAUAGCGCGAACAUCCUCAACCUCCAAUGCAUCCCACCACAUGAUGAUGCCUGAAGAGCCUUCGUUUUUUG | -3.61
9 | GACCAAUCUGCCCUCAGAGCUCGAGAACAUCUUCGGAUGCAGAGGUGGCAGGCUUCGGUGGCGCGAUAGCGUCAACGUCCUCAACCUCCAAUGCAUCCCACCACAUGAUGAUGCCUGAAGAGCCUUGGUUUUUUG | -1.53
10 | GACCAAUCUGCCCUCAGAGCUCGAGAACAUCUUCGGAUGCAGAGGUGGCAGUCUUCGGUGGCGCGAUAGCGCCAACGUCCUCAACCUCCAAUGCAUCCCACCACAUGAUGAUGCCUGAAGAGCCUUGGUUUUUUG | -2.32
11 | GACCAAUCUGCCCUCAGAGCUCGAGAACAUCUUCGGAUGCAGAGGUGUCAGGCUUCGGUGGCGCGAUAGCGCCAACGUCCUCAACCUCCAAUGCAUCCCACCACAUGAUGAUGCCUGAAGAGCCUUGGUUUUUUG | -2.29
12 | GACCAAUCUGCCCUCAGAGCUCGAGAACAUCUUCGGAUGCAGAGGUGGCAGGCUUCGGUGGCGCGAUAGCGCAAACGUCCUCAACCUCCAAUGCAUCCCACCACAUGAUGAUGCCUGAAGAGCCUUGGUUUUUUG | -1.49
13 | GACCAAUCUGCCCUCAGAGCUCGAGAACAUCUUCGGAUGCAGAGGUGGCAGGCUUCGGUGGCGUGAUAGCGCCAACGUCCUCAACCUCCAAUGCAUCCCACCACAUGAUGAUGCCUGAAGAGCCUUGGUUUUUUG | -2.1
14 | GACCAAUCUGCCCUCAGAGCUCGAGAACAUCUUCGGAUGCAGAGGUGGCAGGCUUCGGUGGCGCGAUAGAGCCAACGUCCUCAACCUCCAAUGCAUCCCACCACAUGAUGAUGCCUGAAUAGCCUUGGUUUUUUG | -1.59
15 | GACCAAUCUGCCCUCAGAGCUCGAGAACAUCUUCGGAUGCAGAGGUGACAGCCUUCGGUGACGCGAUAGCGCCAACGUCCUCAACCUCCAAUGCAUCCCACCACAUGAUGAUGCCUGAAAAGCCUUGGUUUUUUG | -1.18
16 | GACCAAUCUGCCCUCAGAGCUCGAGAACAUCUUCGGAUGCAGAGGUGGCAGGCUUCGGUGGCGCGAUAGCGCUAACGUCCUUAACCUCCAAUUCAUCCCACCACAUGAUUAUGCCUGAAGAGCCUUGGUUUUUUG | -3.63
17 | GACCAAUCUGCCCUCAGAGCUCGAGAACAUCUUCGGAUGCAGAGGUGGCAGGCUUCGGUGGCGCGAUAGCGCCAACGUUCUCAACCUCCAAUGCAUCCCACCACAUGAUGAUGCCUGAAGAGCCUUGGUUUUUUG | -2.22
18 | GACCAAUCUGCCCUCAGAGCUCGAGAACAUCUUCGGAUGCAGAGGUGGCAGGCUUCGGUGGCGCGAUAGCGCCAACGUCCUUAACCUCCAAUUCAUCCCACCACAUGAUUAUGCCUGAAGAGCCUUGGUUUUUUG | -3.55
19 | GACCAAUCUGCCCUCAGAGCUCGAGAACAUCUUCGGAUGCAGAGGUGGCAGGCUUCGGUGGUGCGAUAGCGCCAACGUCCUCAACCUCCAUUGCAUCCCACCGCAAGAUGAUGUCUGAAGAGCCUUGGUUUUUUG | -5.16
20 | GACCAAUCUGCCCUCAGAGCUCGAGAACAUCUUCGGAUGCAGAGGUGGCAGGCUUCGGUGGCGCGAUAGCGCCAACGUCCUGAACCGCCAAUGCAUCCCACCACAUGAUGAUGCCUGAAGAGCCUUGGUUUUUUG | -1.06
21 | GACCAAUCUGCCCUCAGAGCUCGAGAACAUCUUCGGAUGCAGAGGUGGCAGGCUUCGGUGGCGCGAUAGCGCUAACGUCCUCAACCUCCAAUGCAUCCCACCACAUGAUAAUGCCUGAAGAGCCUUGGUUUUUUG | -2.67

Row | Variant | polymerase ribozyme fitness (log ratio)
22 | GACCAAUCUGCCCUCAGAGCUCGAGAACAUCUUCGGAUGCAGAGGUGACAGCCUUCGGUGUCGCGAUAGCGCCAACGUCCUCAACCUCCAAUGCAUCCCACCACAUGAUGAUGCCUGAAAAGCCUUGGUUUUUUG | -0.93
23 | GACCAAUCUGCCCUCAGAGCUCGAGAACAUCUUCGGAUGCAGAGGUGGCAGGCUUCGGUGGUGCGAUAGCGCCAACGUCCUCAACAUCCAAUGCAUCCCUCCAAAUGAUCAUGCCUGAAGAGCCUUGGUUUUUGG | -5.64
24 | GACCAAUCUGCCCUCAGAGCUCGAGAACAUCUUCGGAUGCAGAGGUGGCAGGCUUCGGUGGCGCGAUAGCGCCAACGUCCUCAACCUUCAAUGCAUCCCACCGCAUGAUGAUGCCUGAAGAGCCUUGGUUUUUUG | -7.61
25 | GACCAAUCUGCCCUCAGAGCUCGAGAACAUCUUCGGAUGCAGAGGUGGCAGGCUUCGGUGGCGCGAUAGCGCCAACGUCCUCAACCUCCAAUGCAUCGCACCACAUGAUGAUGCCUGAAGAGCCUUGGUUUUUUG | -6.78
26 | GACCAAUCUGCCCUCAGAGCUCGAGAACAUCUUCGGAUGCAGAGGUGGCAGGCUUCGGUGGCGCGAUAGCGGCAACGUCCUCGACCUCCAAUGCAUCCCACCACAUGAUGAUGCCUAAAGAGCCUUGGUUUUGUG | -3.93
27 | GACCAAUCUGCCCUCAGAGCUCGAGAACAUCUUCGGAUGCAGAGGUGGCAGGCUUCGGUGGCGCGAUAGCGCCAACGUUCUCAACCUCCAAUGCAUCCCACCACGUGAUGAUGCCUGAAGAGCCUUGGUUUUUUG | -3.11
28 | GACCAAUCUGCCCUCAGAGCUCGAGAACAUCUUCGGAUGCAGAGGUGGCAGGCUUCGGUGGCGCGAUAGCGCCAACGUCCUCAAUCUCCAAUGCAUCCCACCACAUGAUGAUGCCUGAAGAGCCUUGGUUUUUUG | -2.5
29 | GACCAAUCUGCCCUCAGAGCUCGAGAACAUCUUCGGAUGCAGAGGUGGCAGGCUUCGGUGGCGCGAUAGCGCCAACGUCCUCAACCUUCAAUGCAUCCCACCACAUGAUGAUGCCUGAAGAGCCUUGGUUUUUUG | -1.61
30 | GACCAAUCUGCCCUCAGAGCUCGAGAACAUCUUCGGAUGCAGAGGUGGCAGGCUUCGGUGGCGUGAUAGCGCCAACGUCCUCAACCUCCAAUGCAUCCCACCACAUGAUGAUGUCUGAAGAGCCUUGGUUUUUUG | -2.92
31 | GACCAAUCUGCCCUCAGAGCUCGAGAACAUCUUCGGAUGCAGAGGUGGCAGGCUUCGGUGGCGCGAUAGCGCCAACGUCCUCAACCUCCAAUGCAUCCCACCACAUGAUGAUGCCUGAAGAGUCUUGGUUUUUUG | 0.165
32 | GACCAAUCUGCCCUCAGAGCUCGAGAACAUCUUCGGAUGCAGAGGUGGCAGGCUUCGGUGGCGCGAUAGCGCCAACGUCCUCAACCUCCAAUGCAUCCCACCACAUGAUGAUGCCUGAAGAGACUUGGUUUUUUG | -0.661
33 | GACCAAUCUGCCCUCAGAGCUCGAGAACAUCUUCGGAUGCAGAGGUGCCAGGCUUCGGUGGCGCGAUAGCGCCAACGUCCUCAACCUCCAAUGCAUCCCACCACAUGAUGAUGCCUGAAGAGCCUUGUUUUUUUG | -3.83
34 | GACCAAUCUGCCCUCAGAGCUCGAGAACAUCUUCGGAUGCAGAGGUGGCAGGCUUCGGUGGCGCGAUAGCGCCAACGUCCUCAACCUCCAAUGCAUCCCACCACAUGAUGAUGACUGAAGAGCCUUGGUUUUUUG | -2.92
35 | GACCAAUCUGCCCUCAGAGCUCGAGAACAUCUUCGGAUGCAGAGGUGGCAGGCUUCGGUGGCGCGAUAGAGCCAACGUCCUCAACCUCCAAUGCAUCCCACCACAUGAUGAUGCCUGAAGAGCCUUGGUUUUUUG | -2.18
36 | GACCAAUCUGCCCUCAGAGCUCGAGAACAUCUUCGGAUGCAGAGGUGGCAGGCUUCGGUGGCGCGAUAGUGCCAACGUCCUCAACCUCCAAUGCAUCCCACCACAUGAUGAUGCCUGAAGAGCCUUGGUUUUUUG | -1.31
37 | GACCAAUCUGCCCUCAGAGCUCGAGAACAUCUUCGGAUGCAGAGGUGGCAGGCUUCGGUGGCGCGAUAGCGCCAACGUCCUCAACCUCCAAUGCAUCCCAUCACAUGAUGAUGCCUGAAGAGCCUUGGUUUCUUG | -1.92
38 | GACCAAUCUGCCCUCAGAGCUCGAGAACAUCUUCGGAUGCAGAGGUGGCAGGCUUCGGUGGCGCGAUAGCGCCAACGUCCUAAACUUCCAAUGCAUCCCACCACAUGAUUAUGCCUGAAGAGCCUUGGUUAUUUG | -4.27
39 | GACCAAUCUGCCCUCAGAGCUCGAGAACAUCUUCGGAUGCAGAGGUGGCAGGCUUCGGUGGCGUGAUAGCGCCAACGUCCUCAACCUCCAAUGCAUCCCACCACAUGAAGAUGCCUGAAGAGCAUUGGUUUUUUG | -5.73
40 | GACCAAUCUGCCCUCAGAGCUCGAGAACAUCUUCGGAUGCAGAGGUGGCAGGCUUCGGUGGCGCGAUAGCGCCAACGUCAUCAACCUCCAAUGCAUCCCACCACAUGAUGAUGCCUGAAGAGCCUUGGUUUUUUG | -4.71
41 | GACCAAUCUGCCCUCAGAGCUCGAGAACAUCUUCGGAUGCAGAGGUGGCAGGCUUCGGUGGCGCGAUAGCGCCAACGUCUUCAACCUCCAAUGCAUCCCACCUCAUGAUGAUGCCUGAAGUGCCUUGGUUUUUUA | -5.5
42 | GACCAAUCUGCCCUCAGAGCUCGAGAACAUCUUCGGAUGCAGAGGUGGCAGGCUUCGGUGGCGCGAUAGCGCGGACGUCCUCAACCUCCAAUGCAACCCACCACAUGAUGAUGCCUGAAGAGCCUUGGUUUUUUG | -4.63

— the RNAGym collection of RNA variant scans (doi:10.1073/pnas.2313332121)
